In US20230383288, “SYSTEMS, METHODS, AND COMPOSITIONS FOR RNA-GUIDED RNA-TARGETING CRISPR EFFECTORS” (Massachusetts Institute of Technology, published 2023):

Molecular target: T1, DiCas7-11 D429A/D654A (Desulfonema ishimotonii, D429A,D654A)
T1 chain: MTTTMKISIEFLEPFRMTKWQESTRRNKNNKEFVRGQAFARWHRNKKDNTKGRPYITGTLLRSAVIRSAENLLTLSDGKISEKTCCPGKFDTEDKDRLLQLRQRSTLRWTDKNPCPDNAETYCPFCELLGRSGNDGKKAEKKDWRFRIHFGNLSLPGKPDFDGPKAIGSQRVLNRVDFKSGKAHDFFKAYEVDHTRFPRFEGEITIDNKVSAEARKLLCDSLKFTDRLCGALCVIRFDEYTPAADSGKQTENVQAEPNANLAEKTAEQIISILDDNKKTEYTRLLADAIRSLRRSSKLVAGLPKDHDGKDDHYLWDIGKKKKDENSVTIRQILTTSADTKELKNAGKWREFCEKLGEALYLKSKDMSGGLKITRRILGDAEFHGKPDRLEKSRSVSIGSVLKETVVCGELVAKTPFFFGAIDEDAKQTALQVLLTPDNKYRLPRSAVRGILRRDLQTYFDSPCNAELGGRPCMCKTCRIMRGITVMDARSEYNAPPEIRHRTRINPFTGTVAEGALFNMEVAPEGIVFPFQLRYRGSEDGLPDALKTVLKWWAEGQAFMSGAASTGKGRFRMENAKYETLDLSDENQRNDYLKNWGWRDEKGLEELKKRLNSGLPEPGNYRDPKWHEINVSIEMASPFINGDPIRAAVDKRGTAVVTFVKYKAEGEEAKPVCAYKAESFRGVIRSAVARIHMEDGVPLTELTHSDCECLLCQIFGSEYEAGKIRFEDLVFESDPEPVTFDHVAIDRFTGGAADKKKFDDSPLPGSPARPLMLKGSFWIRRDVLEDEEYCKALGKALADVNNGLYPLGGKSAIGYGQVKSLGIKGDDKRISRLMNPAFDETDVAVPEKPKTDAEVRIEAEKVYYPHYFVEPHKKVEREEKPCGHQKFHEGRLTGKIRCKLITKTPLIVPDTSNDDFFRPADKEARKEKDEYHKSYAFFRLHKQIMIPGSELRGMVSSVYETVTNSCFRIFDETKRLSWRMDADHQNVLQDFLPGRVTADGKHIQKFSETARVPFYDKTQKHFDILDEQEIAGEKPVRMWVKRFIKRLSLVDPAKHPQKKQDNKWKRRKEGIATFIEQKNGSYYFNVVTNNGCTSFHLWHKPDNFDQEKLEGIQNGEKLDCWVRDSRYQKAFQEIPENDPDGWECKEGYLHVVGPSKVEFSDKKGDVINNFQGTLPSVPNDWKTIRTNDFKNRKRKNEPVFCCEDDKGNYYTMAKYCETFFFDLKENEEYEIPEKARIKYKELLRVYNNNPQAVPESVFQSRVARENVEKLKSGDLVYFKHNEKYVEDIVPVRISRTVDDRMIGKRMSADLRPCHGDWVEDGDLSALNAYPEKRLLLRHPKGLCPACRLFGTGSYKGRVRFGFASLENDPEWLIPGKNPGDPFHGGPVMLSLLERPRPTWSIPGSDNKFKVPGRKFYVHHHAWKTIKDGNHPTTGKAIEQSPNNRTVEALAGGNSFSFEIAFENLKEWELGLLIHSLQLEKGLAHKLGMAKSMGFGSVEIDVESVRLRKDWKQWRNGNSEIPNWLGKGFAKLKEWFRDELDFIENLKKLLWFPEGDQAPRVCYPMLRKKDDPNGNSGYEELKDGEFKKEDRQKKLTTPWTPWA
Assay: structure; cryo-EM 2.45 A, PDB 7WAH; 20 mM Hepes pH 7.0, 150 mM NaCl, 2 mM MgCl2; target pairs with crRNA 1-23 except flipped 4 and 10
Details: tags: N-terminal MBP, C-terminal His6
Protocol: A Cas7-11-crRNA-target RNA complex was reconstituted by mixing the purified MBP-Cas7-11 protein, the 39-nucleotide crRNA, and the 25-nucleotide target RNA, at a molar ratio of 1:1.2:1.5. The complex was purified by size-exclusion chromatography on a Superose6 Increase 10/300 column (GE Healthcare), equilibrated with the buffer containing 20 mM Hepes-NaOH, pH 7.0, 150 mM NaCl, 2 mM MgCl₂, and 1 mM DTT. The peak fraction containing Cas7-11-:crRNA-target RNA complex was concentrated to 1.5 A260 units using an Amicon Ultra-4 filter (10 kDa molecular-weight cutoff; Millipore). The samples (3 μl) were then applied to freshly glow-discharged Au 300 mesh R1.2/1.3 grids (Quantifoil) in a Vitrobot Mark IV (FEI) at 4° C. with a waiting time of 10 sec and a blotting time of 4 sec under 100% humidity conditions. The grids were plunge-frozen into liquid ethane cooled at liquid nitrogen temperature.
A model was built using Nautilus and Buccaneer in CCP-EM package and manually built using COOT against the density map sharpened using DeepEMhancer. […] The curve representing model vs. full map was calculated using phenix.mtriage, based on the final model and the full, filtered, and sharpened map. The cryo-EM density maps were calculated with UCSF ChimeraX, and molecular graphics figures were prepared with CueMol (http://www.cuemol.org).

B1: crRNA for structural analysis ; target RNA for structural analysis (ssRNA ; ssRNA)
RNA 1: GGUGAUGUCACGGAACCUUUGUUGUCUUCGACAUGGGUAAU
RNA 2: GGAUUACCCAUGUCGAAGACAACAAAG
binding result: binds
